# Experimental data published in patent US8273710B2, “Protein hydrolysate enriched in peptides inhibiting DPP-IV and their use” (Campina Nederland Holding B.V., priority 2004, dated 2012).
# Biological target: T1, DPP-IV (Sus scrofa, UniProt P22411)
# Experiment: not given
# Conditions: additional peptides
# Source text: About 40 protein hydrolysates were subjected to on-line liquid chromatography (LC)-biochemical detection (BCD)-mass spectrometry (MS), a method that allowed for separation of crude extract by HPLC, after which the presence of bioactive compounds was detected by means of an on-line biochemical assay. This method for on-line fractionation and characterisation has extensively been described by Van Elswijk et al. (J Chromatography A (2003) 1020:45-58).
# A variety of protein hydrolysates prepared according to example 2 were further investigated for DPP-IV inhibiting activity. Hydrolysed protein samples were analysed for DPP-IV inhibitory activity in a high-resolution screening (HRS) instrument, as discussed in Van Elswijk et al. (supra).
# DPP-IV inhibition was monitored via the substrate conversion based bioassay format as disclosed in example 1. In addition to the DPP-IV inhibitory activity data, chemical information was obtained in real-time by allowing part of the HPLC effluent to be directed towards a mass spectrometer. […] The assay conditions applied ensured maximum enzyme activity by applying substrate saturation.
# T1 sequence (P22411 whole entry): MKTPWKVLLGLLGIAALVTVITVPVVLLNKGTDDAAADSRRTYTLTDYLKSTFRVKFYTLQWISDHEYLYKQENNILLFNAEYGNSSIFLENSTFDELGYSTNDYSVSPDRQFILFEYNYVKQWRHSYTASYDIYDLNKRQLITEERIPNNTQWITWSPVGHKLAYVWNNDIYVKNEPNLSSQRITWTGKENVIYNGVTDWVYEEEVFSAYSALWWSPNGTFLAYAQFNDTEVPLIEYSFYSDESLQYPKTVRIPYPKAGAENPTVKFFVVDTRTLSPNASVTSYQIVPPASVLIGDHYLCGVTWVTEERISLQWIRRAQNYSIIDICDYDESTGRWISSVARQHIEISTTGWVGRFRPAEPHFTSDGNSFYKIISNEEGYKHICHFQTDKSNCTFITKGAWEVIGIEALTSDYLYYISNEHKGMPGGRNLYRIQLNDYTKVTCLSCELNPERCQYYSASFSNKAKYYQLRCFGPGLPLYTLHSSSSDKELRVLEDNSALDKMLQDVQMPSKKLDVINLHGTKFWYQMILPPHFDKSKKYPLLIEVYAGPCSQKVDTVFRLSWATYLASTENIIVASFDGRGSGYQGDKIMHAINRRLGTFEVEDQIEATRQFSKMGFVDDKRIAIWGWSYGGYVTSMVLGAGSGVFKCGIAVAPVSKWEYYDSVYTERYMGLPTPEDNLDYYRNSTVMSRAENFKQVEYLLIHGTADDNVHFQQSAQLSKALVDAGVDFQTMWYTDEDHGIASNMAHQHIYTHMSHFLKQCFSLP
row,Compound,DPP-IV inhibiting activity (qualitative)
1,VTKCCTE,DPP-IV inhibiting compounds

# Same assay, conditions: signal relative to the highest signal obtained in this test (LPL and IPI)
row,RELATIVE POTENCY [%],Compound
1,34%,GPFP
2,6%,HPIK
3,98%,KVLP
4,11%,LPLP
5,15%,LPVP
6,23%,MPLW
7,20%,PFP
8,37%,PLLQ

row,Compound,RELATIVE POTENCY [%]
1,CC[C@H](C)[C@H](N)C(=O)N1CCC[C@H]1C(=O)N[C@H](C(=O)O)[C@@H](C)CC [IPI],100%

# Biological target: T1, DPP-IV
# Experiment: In vitro DPP-IV inhibition assay with Gly-Pro-p-nitroanilide substrate (absorption at 385 nm)
# Assay type: biochemical
# Design: purchased Sigma D-7052
# Conditions: unhydrolysed control proteins, DH 0%
# Experimental: DPP-IV activity can be determined by measuring the increase in absorption at 385 nm using Gly-Pro-p-nitroanilide (Sigma G-0513) as DPP-IV substrate. A decrease in DPP-IV activity is a measure for the inhibition.
# 13.152 mg Gly-Pro-p-nitroanilide (substrate; Sigma G-0513) was dissolved in 1 ml Tris buffer, pH 8.0. DPP-IV (Sigma D-7052) was diluted with Tris buffer, pH 8.0 to 1.1 Unit/ml. The substrate was diluted 50-fold with Tris buffer, pH 8.0. The samples were prepared by diluting a protein hydrolysate to a 1 wt. % protein solution in Tris buffer, pH 8.0. The samples were then serially diluted to obtain a range of sample concentrations. 50 μl of the different serially diluted samples and 50 μl of the diluted substrate were then pipetted in wells of a microtiter plate with 96 wells. Subsequently, 100 μl of the diluted enzyme was pipetted in each well of a plate with 96 wells. Then the increase in absorption at 385 nm was determined and DPP-IV activities at different concentrations of a variety of protein hydrolysates were determined, from which the IC50 (i.e. the concentration of inhibitor (particular protein hydrolysate) that inhibits 50% of the DPP-IV activity) could be derived. […] The degree of hydrolysis was determined using the o-phtaldialdehyde method, which is well known in the art.
row,inhibition of the enzyme DPP-IV,Compound
1,did not inhibit,Sodium caseinate
